Target: T1, HA-hFc probe: H1N1 A/California/04/2009 HA ectodomain fused to human IgG1 Fc (Influenza A virus A/California/04/2009 …, UniProt C3W5S1)
T1 construct: also called HA-probe; HA-human Fc probe; source: High Five insect cells (recombinant baculovirus), purified (HiTrap Protein G); not shown: Fc (human IgG1), C-terminal, kept
Assay: flow cytometry on cells
Conditions: one partner purified

B1: fTfR-5J8 (Flag+) mutant D100bL (scFv, V domains shown)
VH: EVQLVESGPGLVKPSDILSLTCAVSGYSISSNYYWGWIRQPPGKGLEWIGSIYHSGSTYYKPSLESRLGISVDTSKNQFSLKLSFVSAADTAVYYCARHVRSGYPLTAYYFDKWGQGTLVTVSS
VL: SYVLTQPPSVSVAPGETARISCGGNNIGTKVLHWYQQTPGQAPVLVVYDDSDRPSGIPERFSGSNSGNTATLTISRVEVGDEADYYCQVWDISTDQAVFGGGTKLTVL
notes: also called D100bLeu
binding result: binds

— paper PMC12090727, “Cell binding, uptake, and infection of influenza A virus using recombinant antibody-based receptors” (Journal of Virology, 2025)
